The data set concerns the molecule itself. Briefly: crystal structure.

These results are taken from paper PMC8247599 (Genes & Development, 2021).

B1: Khc^855–941 (domain or fragment)
chain: not shown
With B1, the binding result was “binds”.
